Assay results published in article PMC10318635, “ER Ca^2+ overload activates the IRE1α signaling and promotes cell survival” (Cell & Bioscience, 2023).

Target: T1, Flag-tagged IRE1α-LD (UniProt O75460 19-440)
T1 construct: signal peptide in the construct; inositol-requiring enzyme 1 (IRE1α/ERN1), luminal domain (LD), residues 1-440; The signal peptide is probably removed in HEK-293T cells; also called IRE1α-LD-FLAG; LD-FLAG; source: HEK-293T, purified (M2 beads, eluted with Flag peptide, concentrated by ultrafiltration)
T1 sequence (looked up): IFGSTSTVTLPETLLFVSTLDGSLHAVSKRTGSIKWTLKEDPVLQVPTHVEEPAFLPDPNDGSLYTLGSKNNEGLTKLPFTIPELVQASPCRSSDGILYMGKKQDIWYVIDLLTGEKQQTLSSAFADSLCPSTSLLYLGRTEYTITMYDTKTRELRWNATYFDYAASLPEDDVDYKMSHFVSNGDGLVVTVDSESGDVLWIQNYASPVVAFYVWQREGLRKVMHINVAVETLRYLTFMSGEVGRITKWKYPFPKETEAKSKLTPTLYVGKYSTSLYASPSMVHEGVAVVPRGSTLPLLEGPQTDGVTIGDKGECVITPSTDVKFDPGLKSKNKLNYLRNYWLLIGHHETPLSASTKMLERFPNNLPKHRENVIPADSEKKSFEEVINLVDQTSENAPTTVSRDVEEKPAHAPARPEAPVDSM
Test: pull-down; GST-BiP-NBD immobilized on glutathione Sepharose 4B beads, incubated with IRE1α-LD-FLAG eluate in buffer B (50 mM HEPES, 75 mM NaCl, 10% glycerol, 1 mM TCEP, pH 7.5) with 0.5 or 0.8 mM Ca2+, room temperature, 2 h; anti-FLAG immunoblot
Settings: both partners purified

binding result: binds
B1: GST-tagged BiP-nucleotide binding domain (NBD) (domain or fragment)
chain: not shown
notes: also called GST-BiP-NBD; BiP-NBD; source: bacterially purified, immobilized on glutathione Sepharose 4B beads
